# T1: compA-01
# T1 chain: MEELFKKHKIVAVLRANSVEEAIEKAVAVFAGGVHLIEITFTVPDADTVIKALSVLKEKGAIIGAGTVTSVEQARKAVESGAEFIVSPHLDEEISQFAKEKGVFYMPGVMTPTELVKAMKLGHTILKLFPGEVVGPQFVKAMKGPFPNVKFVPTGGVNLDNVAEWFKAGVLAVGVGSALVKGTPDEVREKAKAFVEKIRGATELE
# B1: compB-01 (I53-50B sequence) (designed binder)
# chain: MNQHSHKDHETVRIAVVRARWHAEIVDACVSAFEAAMRDIGGDRFAVDVFDVPGAYEIPLHARTLAETGRYGAVLGTAFVVNGGIYRHEFVASAVINGMMNVQLNTGVPVLSAVLTPHNYDKSKAHTLLFLALFAVKGMEAARACVEILAAREKIAA
# notes: Designed pentameric component B of the two-component I53-50 icosahedral particle; also called I53-50B compB-01; bompB-01
# Target: T1, compA-01
# Assay: particle assembly of purified compB-01 with compA-01
binder,measurement,value
B1,binding result,binds
